B1: FX [191-194]>[NATLMPR]-HPC4 (protein)
chain: ANSFLEEMKKGHLERECMEETCSYEEAREVFEDSDKTNEFWNKYKDGDQCETSPCQNQGKCKDGLGEYTCTCLEGFEGKNCELFTRKLCSLDNGDCDQFCHEEQNSVVCSCARGYTLADNGKACIPTGPYPCGKQTLERRKRSVAQATSSSGEAPDSITWKPYDAADLDPTENPFDLLDFNQTQPERGDNNATLMPRIVGGQECKDGECPWQALLINEENEGFCGGTILSEFYILTAAHCLYQAKRFKVRVGDRNTEQEEGGEAVHEVEVVIKHNRFTKETYDFDIAVLRLKTPITFRMNVAPACLPERDWAESTLMTQKTGIVSGFGRTHEKGRQSTRLKMLEVPYVDRNSCKLSSSFIITQNMFCAGYDTKQEDACQGDSGGPHVTRFKDTYFVTGIVSWGEGCARKGKYGIYTKVTAFLKWIDRSMKTRGLPKAKSHAPEVITSSPLKDQVDPRLIDGK
B2: FX [191-194]>[NATLRPR]-HPC4 (protein)
chain: ANSFLEEMKKGHLERECMEETCSYEEAREVFEDSDKTNEFWNKYKDGDQCETSPCQNQGKCKDGLGEYTCTCLEGFEGKNCELFTRKLCSLDNGDCDQFCHEEQNSVVCSCARGYTLADNGKACIPTGPYPCGKQTLERRKRSVAQATSSSGEAPDSITWKPYDAADLDPTENPFDLLDFNQTQPERGDNNATLRPRIVGGQECKDGECPWQALLINEENEGFCGGTILSEFYILTAAHCLYQAKRFKVRVGDRNTEQEEGGEAVHEVEVVIKHNRFTKETYDFDIAVLRLKTPITFRMNVAPACLPERDWAESTLMTQKTGIVSGFGRTHEKGRQSTRLKMLEVPYVDRNSCKLSSSFIITQNMFCAGYDTKQEDACQGDSGGPHVTRFKDTYFVTGIVSWGEGCARKGKYGIYTKVTAFLKWIDRSMKTRGLPKAKSHAPEVITSSPLKDQVDPRLIDGK
B3: FX [191-194]>[NATIKPR]-HPC4 (protein)
chain: ANSFLEEMKKGHLERECMEETCSYEEAREVFEDSDKTNEFWNKYKDGDQCETSPCQNQGKCKDGLGEYTCTCLEGFEGKNCELFTRKLCSLDNGDCDQFCHEEQNSVVCSCARGYTLADNGKACIPTGPYPCGKQTLERRKRSVAQATSSSGEAPDSITWKPYDAADLDPTENPFDLLDFNQTQPERGDNNATIKPRIVGGQECKDGECPWQALLINEENEGFCGGTILSEFYILTAAHCLYQAKRFKVRVGDRNTEQEEGGEAVHEVEVVIKHNRFTKETYDFDIAVLRLKTPITFRMNVAPACLPERDWAESTLMTQKTGIVSGFGRTHEKGRQSTRLKMLEVPYVDRNSCKLSSSFIITQNMFCAGYDTKQEDACQGDSGGPHVTRFKDTYFVTGIVSWGEGCARKGKYGIYTKVTAFLKWIDRSMKTRGLPKAKSHAPEVITSSPLKDQVDPRLIDGK
B4: FX [191-194]>[NATIRPR]-HPC4 (protein)
chain: ANSFLEEMKKGHLERECMEETCSYEEAREVFEDSDKTNEFWNKYKDGDQCETSPCQNQGKCKDGLGEYTCTCLEGFEGKNCELFTRKLCSLDNGDCDQFCHEEQNSVVCSCARGYTLADNGKACIPTGPYPCGKQTLERRKRSVAQATSSSGEAPDSITWKPYDAADLDPTENPFDLLDFNQTQPERGDNNATIRPRIVGGQECKDGECPWQALLINEENEGFCGGTILSEFYILTAAHCLYQAKRFKVRVGDRNTEQEEGGEAVHEVEVVIKHNRFTKETYDFDIAVLRLKTPITFRMNVAPACLPERDWAESTLMTQKTGIVSGFGRTHEKGRQSTRLKMLEVPYVDRNSCKLSSSFIITQNMFCAGYDTKQEDACQGDSGGPHVTRFKDTYFVTGIVSWGEGCARKGKYGIYTKVTAFLKWIDRSMKTRGLPKAKSHAPEVITSSPLKDQVDPRLIDGK
B5: FX [191-194]>[NATDTPR]-HPC4 (protein)
chain: ANSFLEEMKKGHLERECMEETCSYEEAREVFEDSDKTNEFWNKYKDGDQCETSPCQNQGKCKDGLGEYTCTCLEGFEGKNCELFTRKLCSLDNGDCDQFCHEEQNSVVCSCARGYTLADNGKACIPTGPYPCGKQTLERRKRSVAQATSSSGEAPDSITWKPYDAADLDPTENPFDLLDFNQTQPERGDNNATDTPRIVGGQECKDGECPWQALLINEENEGFCGGTILSEFYILTAAHCLYQAKRFKVRVGDRNTEQEEGGEAVHEVEVVIKHNRFTKETYDFDIAVLRLKTPITFRMNVAPACLPERDWAESTLMTQKTGIVSGFGRTHEKGRQSTRLKMLEVPYVDRNSCKLSSSFIITQNMFCAGYDTKQEDACQGDSGGPHVTRFKDTYFVTGIVSWGEGCARKGKYGIYTKVTAFLKWIDRSMKTRGLPKAKSHAPEVITSSPLKDQVDPRLIDGK
B6: FX [191-194]>[NATLEPR]-HPC4 (protein)
chain: ANSFLEEMKKGHLERECMEETCSYEEAREVFEDSDKTNEFWNKYKDGDQCETSPCQNQGKCKDGLGEYTCTCLEGFEGKNCELFTRKLCSLDNGDCDQFCHEEQNSVVCSCARGYTLADNGKACIPTGPYPCGKQTLERRKRSVAQATSSSGEAPDSITWKPYDAADLDPTENPFDLLDFNQTQPERGDNNATLEPRIVGGQECKDGECPWQALLINEENEGFCGGTILSEFYILTAAHCLYQAKRFKVRVGDRNTEQEEGGEAVHEVEVVIKHNRFTKETYDFDIAVLRLKTPITFRMNVAPACLPERDWAESTLMTQKTGIVSGFGRTHEKGRQSTRLKMLEVPYVDRNSCKLSSSFIITQNMFCAGYDTKQEDACQGDSGGPHVTRFKDTYFVTGIVSWGEGCARKGKYGIYTKVTAFLKWIDRSMKTRGLPKAKSHAPEVITSSPLKDQVDPRLIDGK
B7: FX [191-194]>[NATMMPR]-HPC4 (protein)
chain: ANSFLEEMKKGHLERECMEETCSYEEAREVFEDSDKTNEFWNKYKDGDQCETSPCQNQGKCKDGLGEYTCTCLEGFEGKNCELFTRKLCSLDNGDCDQFCHEEQNSVVCSCARGYTLADNGKACIPTGPYPCGKQTLERRKRSVAQATSSSGEAPDSITWKPYDAADLDPTENPFDLLDFNQTQPERGDNNATMMPRIVGGQECKDGECPWQALLINEENEGFCGGTILSEFYILTAAHCLYQAKRFKVRVGDRNTEQEEGGEAVHEVEVVIKHNRFTKETYDFDIAVLRLKTPITFRMNVAPACLPERDWAESTLMTQKTGIVSGFGRTHEKGRQSTRLKMLEVPYVDRNSCKLSSSFIITQNMFCAGYDTKQEDACQGDSGGPHVTRFKDTYFVTGIVSWGEGCARKGKYGIYTKVTAFLKWIDRSMKTRGLPKAKSHAPEVITSSPLKDQVDPRLIDGK

Target: human α-thrombin (FIIa), P00734

kcat/KM, No Activity:
B1
B2
B3
B4
B5
B6
B7

Source: patent publication US20160024487
